Target: stabilized prefusion SARS-CoV-2 S ectodomain (SARS-CoV-2) (UniProt P0DTC2)
Assay: negative-stain electron microscopy

COVA1-12 Fab
stoichiometry N (Fab per trimer): 1

COVA2-04 Fab
stoichiometry N (Fab per trimer): 1

COVA2-07 Fab
stoichiometry N (Fab per trimer): 1

COVA2-15 Fab
stoichiometry N: 3 per trimer

COVA2-39 Fab
stoichiometry N (Fab per trimer): 1

Source: paper PMC7299281
